Results published in publication PMC3287977.

Tests used:
[1] = target: A. fulgidus HypB, tag-free (Archaeoglobus fulgidus); experiment: SEC-MALS; AfHypB (0.5 mM) preloaded with 5 mM GMPPNP and 1 mM NiCl2, excess removed; Superdex-75 HR10/30, 50 mM Tris pH 7.5, 0.2 M NaCl, 5 mM MgCl2, 1 mM TCEP
[2] = target: A. fulgidus HypA, tag-free (Archaeoglobus fulgidus) (UniProt O28904); experiment: SEC-MALS; equimolar AfHypA and AfHypB preloaded with GDP (monomeric form); Superdex-75 HR10/30, 50 mM Tris pH 7.5, 0.2 M NaCl, 1 mM TCEP, room temperature; peaks checked by SDS-PAGE
Chain of UniProt O28904 (O28904 whole entry): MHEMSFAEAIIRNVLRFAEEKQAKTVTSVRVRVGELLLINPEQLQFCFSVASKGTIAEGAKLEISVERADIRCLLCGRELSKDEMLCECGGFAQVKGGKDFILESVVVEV

Substance: A. fulgidus HypB, tag-free (natural protein)
- stoichiometry N [1]: 2
- stoichiometry N [2]: 1
